Target: Hibiscus green spot virus movement protein BMB2 (Hibiscus green spot virus)
Experiment: FRET or BRET; FRET-FLIM: GFP fluorescence lifetime measured in PAMBs of N. benthamiana leaf cells coexpressing BMB2-GFP (donor) and BMB2-mRFP (acceptor), 3 dpi; control without acceptor: BMB2-GFP with non-fused BMB2

“Hibiscus green spot virus movement protein BMB2 (natural protein)” was tested, and the FRET efficiency was 69.8% and the GFP excited-state lifetime with the acceptor was 0.74 ns.
